Data: paper PMC5554461

Molecular target: soluble 2-domain CD4 (2dCD4)
Assay: BLI

“YU2(R456K).SOSIP.664 (from UniProt P35961 499-843) (complex)” showed a fold reduction of the on-rate against YU2.SOSIP.664 of 2 fold.
